Consider 94 variants from the supplement of paper PMC10567573.

The chains are these.
B1: DVL3 (parent)
chain: FPELGYSYGGGSASSQHSEGSRSS
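Note: lentivirally expressed fusions sorted by FACS into six bins by GFP to DsRed ratio, PSI derived from sequencing read proportions per bin multiplied by bin number.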

The variants in the data set derive from B1. The data set can be described thus: protein stability index of a GFP-peptide fusion (GPS, HEK-293T) (PSI 1-6); higher = more stable. The note with it: c terminus: a fixed tail appended.
For FPELGYSYGGGSASSQHSESSRSS [G20S], the protein stability index stood at 3.18.

FPELGYSYGGGSASSQHSEESRSS [G20E]: the protein stability index is 3.52.

Consider FPELGYSYGGGSASSQHSEPSRSS [G20P], for which the protein stability index came out at 2.94. Under FPELGYSYGGGSASSQHSEISRSS [G20I] stands 2.73; under FPELGYSYGGGSASSQHSERSRSS [G20R], 3.15; under FPELGYSYGGGSASSQHSEWSRSS [G20W], 2.32.

With FPELGYSYGGGSASSQHSEYSRSS [G20Y], the protein stability index amounted to 2.64. As to FPELGYSYGGGSASSQHSEHSRSS [G20H], the protein stability index was 2.9. Under FPELGYSYGGGSASSQHSECSRSS [G20C] stands 2.99; under FPELGYSYGGGSASSQHSEKSRSS [G20K], 3.06; under FPELGYSYGGGSASSQHSEDSRSS [G20D], 3.7. Turning to FPELGYSYGGGSASSQHSEGSRES [S23E], the protein stability index turned out to be 2.9. FPELGYSYGGGSASSQHSEGSRGS [S23G]: the protein stability index was 3.26. Under FPELGYSYGGGSASSQHSEGSRDS [S23D] stands 3.17; under FPELGYSYGGGSASSQHSEGSRAS [S23A], 2.97; under FPELGYSYGGGSASSQHSEGSRFS [S23F], 2.39.

In the case of FPELGYSYGGGSASSQHSEGSRHS [S23H], the protein stability index came out at 3.33. The figure for FPELGYSYGGGSASSQHSEGSRCS [S23C] is 3.38; for FPELGYSYGGGSAISQHSEGSRSS [S14I] it is 2.9.

For FPELGYSYGGGSAESQHSEGSRSS [S14E], the protein stability index stood at 3.41. FPELGYSYGGGSAHSQHSEGSRSS [S14H]: the protein stability index came to 3.17. On to FPELGYSYGGGSAGSQHSEGSRSS [S14G], for which the protein stability index was 3.44.

Turning to FPELGYSYGGGSAFSQHSEGSRSS [S14F], the protein stability index was 2.16. Turning to FPELGYSYGGGSANSQHSEGSRSS [S14N], the protein stability index came out at 2.87. Under FPELGYSYGGGSAQSQHSEGSRSS [S14Q] stands 2.99; under FPELGYSYGGGSALSQHSEGSRSS [S14L], 2.73; under FPELGYSYGGGSATSQHSEGSRSS [S14T], 2.77. Take FPELGYSYGGGSARSQHSEGSRSS [S14R]: the protein stability index is 3.25. The figure for FPELGYSYGGGSAYSQHSEGSRSS [S14Y] is 2.37.

Turning to FPELGYSYGGGSAKSQHSEGSRSS [S14K], the protein stability index was 3.51. Turning to FPELGYSYGGGSACSQHSEGSRSS [S14C], the protein stability index worked out at 2.71. Consider FPELGYSYGGGSAVSQHSEGSRSS [S14V], for which the protein stability index came out at 2.96. The figure for FPELGYSYGGGSAPSQHSEGSRSS [S14P] is 3.24. On to FPELGYSYGGGSAMSQHSEGSRSS [S14M], for which the protein stability index stood at 2.59.

Regarding FPELGYSYGGGSAWSQHSEGSRSS [S14W], the protein stability index came out at 2.47.

Take FPELGYSYGGGSADSQHSEGSRSS [S14D]: the protein stability index worked out at 3.61.

On to FPELGYSYGGGSAASQHSEGSRSS [S14A], for which the protein stability index is 3.45. Turning to FPELGYSYGGGSASSQSSEGSRSS [H17S], the protein stability index is 2.8. FPELGYSYGGGSASSQLSEGSRSS [H17L]: the protein stability index worked out at 2.77.

On to FPELGYSYGGGSASSQGSEGSRSS [H17G], for which the protein stability index was 3.07. On to FPELGYSYGGGSASSQQSEGSRSS [H17Q], for which the protein stability index came to 2.83. Consider FPELGYSYGGGSASSQCSEGSRSS [H17C], for which the protein stability index worked out at 3.1. Take FPELGYSYGGGSASSQYSEGSRSS [H17Y]: the protein stability index is 2.45.

For the variant FPELGYSYGGGSASSQPSEGSRSS [H17P], the protein stability index stood at 3.35.

As for FPELGYSYGGGSASSQKSEGSRSS [H17K], the protein stability index came out at 3.12. Under FPELGYSYGGGSASSQISEGSRSS [H17I] stands 2.74; under FPELGYSYGGGSASSQFSEGSRSS [H17F], 2.77; under FPELGYSYGGGSASSQTSEGSRSS [H17T], 3.12. The figure for FPELGYSYGGGSASSQDSEGSRSS [H17D] is 3.08; for FPELGYSYGGGSASSQVSEGSRSS [H17V] it is 3.22; for FPELGYSYGGGSASSQMSEGSRSS [H17M] it is 2.62. For FPELGYSYGGGSASSQNSEGSRSS [H17N], the protein stability index worked out at 3.31.

Regarding FPELGYSYGGGSASSQRSEGSRSS [H17R], the protein stability index stood at 2.61.

For FPELGYSYGGGSASSQWSEGSRSS [H17W], the protein stability index worked out at 2.77. Regarding FPELGYSYGGGSASSQESEGSRSS [H17E], the protein stability index is 3.29. For the variant FPELGYSYGGGSASSQASEGSRSS [H17A], the protein stability index is 3.12. The figure for FPELGYSYGGGSASSNHSEGSRSS [Q16N] is 3.28; for FPELGYSYGGGSASSKHSEGSRSS [Q16K] it is 2.95. The figure for FPELGYSYGGGSASSTHSEGSRSS [Q16T] is 3.48; for FPELGYSYGGGSASSFHSEGSRSS [Q16F] it is 2.03. Under FPELGYSYGGGSASSRHSEGSRSS [Q16R] stands 2.41. For FPELGYSYGGGSASSLHSEGSRSS [Q16L], the protein stability index was 2.83. FPELGYSYGGGSASSEHSEGSRSS [Q16E]: the protein stability index was 3.22. The figure for FPELGYSYGGGSASSCHSEGSRSS [Q16C] is 2.81.

For the variant FPELGYSYGGGSASSSHSEGSRSS [Q16S], the protein stability index turned out to be 3.09.

For the variant FPELGYSYGGGSASSAHSEGSRSS [Q16A], the protein stability index was 2.86.

As to FPELGYSYGGGSASSVHSEGSRSS [Q16V], the protein stability index is 2.7. Regarding FPELGYSYGGGSASSDHSEGSRSS [Q16D], the protein stability index turned out to be 3.58. As for FPELGYSYGGGSASSGHSEGSRSS [Q16G], the protein stability index was 2.88.

FPELGYSYGGGSASSHHSEGSRSS [Q16H]: the protein stability index was 3.12. The figure for FPELGYSYGGGSASSPHSEGSRSS [Q16P] is 3.31; for FPELGYSYGGGSASSYHSEGSRSS [Q16Y] it is 2.69; for FPELGYSYGGGSASSWHSEGSRSS [Q16W] it is 2.27. Under FPELGYSYGGGSASSMHSEGSRSS [Q16M] stands 3.07.

For the variant FPELGYSYGGGSASSIHSEGSRSS [Q16I], the protein stability index came out at 3.05. As for FPELGYSYGGGSASYQHSEGSRSS [S15Y], the protein stability index came out at 2.73.

In the case of FPELGYSYGGGSASPQHSEGSRSS [S15P], the protein stability index was 3.56.

Take FPELGYSYGGGSASRQHSEGSRSS [S15R]: the protein stability index is 2.92. Under FPELGYSYGGGSASCQHSEGSRSS [S15C] stands 2.19; under FPELGYSYGGGSASTQHSEGSRSS [S15T], 2.65; under FPELGYSYGGGSASKQHSEGSRSS [S15K], 2.64. Take FPELGYSYGGGSASNQHSEGSRSS [S15N]: the protein stability index turned out to be 3.38. The figure for FPELGYSYGGGSASHQHSEGSRSS [S15H] is 3.2; for FPELGYSYGGGSASMQHSEGSRSS [S15M] it is 2.74; for FPELGYSYGGGSASIQHSEGSRSS [S15I] it is 2.9. Take FPELGYSYGGGSASQQHSEGSRSS [S15Q]: the protein stability index is 3.18. For the variant FPELGYSYGGGSASAQHSEGSRSS [S15A], the protein stability index turned out to be 3.59. Under FPELGYSYGGGSASWQHSEGSRSS [S15W] stands 1.75; under FPELGYSYGGGSASDQHSEGSRSS [S15D], 2.99. Under FPELGYSYGGGSASLQHSEGSRSS [S15L] stands 3.16; under FPELGYSYGGGSASFQHSEGSRSS [S15F], 2.71; under FPELGYSYGGGSASGQHSEGSRSS [S15G], 2.8.

As to FPELGYSYGGGSASVQHSEGSRSS [S15V], the protein stability index is 3.2.

With FPELGYSYGGGSASEQHSEGSRSS [S15E], the protein stability index was 3.65.
